Laboratory results from the DeepSol protein solubility set.

Assay: soluble on expression in E. coli; label from the status in PepcDB or PDB records

Sequence | soluble on expression in E. coli
MTVTYIGHSGFLLETEDAYFLFDYFEGTIPELKNNKSIIVFSSHRHHDHFNPEIFELIKIYPDIRYVLSYDIPLKRHLKKYENQGIDLAKNILITKKNIETMLKLPNGKDLKISTFRSTDEGVAFLLEYDNKVYYHAGDLNCWYWKEEPKSYRNNMIQLYIREIQKMDNLKIDVAFVPLDPRLEETAYEGLEIFMEHTNPQIVFPMHCWGKYDIISSFLNKHPEYKEKIRMINNEGQIFNV | not soluble
MNRESFAAGERLVSPAYVRQGCEARRSHEHLIRLLLEKGKCPENGWDESTLELFLHELAIMDSNNFLGNCGVGEREGRVASALVARRHYRFIHGIGRSGDISAVQPKAAGSSLLNKITNSLVLDIIKLAGVHTVANCFVVPMATGMSLTLCFLTLRHKRPKAKYIIWPRIDQKSCFKSMITAGFEPVVIENVLEGDELRTDLKAVEAKVQELGPDCILCIHSTTSCFAPRVPDRLEELAVICANYDIPHIVNNAYGVQSSKCMHLIQQGARVGRIDAFVQSLDKNFMVPVGGAIIAGFNDSFIQEISKMYPGRASASPSLDVLITLLSLGSNGYKKLLKERKEMFSYLSNQIKKLSEAYNERLLHTPHNPISLAMTLKTLDEHRDKAVTQLGSMLFTRQVSGARVVPLGSMQTVSGYTFRGFMSHTNNYPCAYLNAASAIGMKMQDVDLFIKRLDRCLKAVRKERSKESDDNYDKTEDVDIEEMALKLDNVLLDTYQDASS | soluble
MRGSHHHHHHMSIITDVYAREVLDSRGNPTLEVEVYTESGAFGRGMVPSGASTGEHEAVELRDGDKSRYGGLGTQKAVDNVNNIIAEAIIGYDVRDQQAIDRAMIALDGTPNKGKLGANAILGVSIAVARAAADYLEIPLYSYLGGFNTKVLPTPMMNIINGGSHSDAPIAFQEFMILPVGAPTFKEALRYGAEIFHALKKILKSRGLETAVGDEGGFAPRFEGTEDGVETILAAIEAAGYVPGKDVFLGFDCASSEFYDKERKVYDYTKFEGEGAAVRTSAEQIDYLEELVNKYPIITIEDGMDENDWDGWKALTERLGKKVQLVGDDFFVTNTDYLARGIQEGAANSILIKVNQIGTLTETFEAIEMAKEAGYTAVVSHRSGETEDSTIADIAVATNAGQIKTGSLSRTDRIAKYNQLLRIEDQLGEVAEYRGLKSFYNLKK | soluble
GSHMTNWLRVYYYEDTISTIKDIAVEEDLSSTPLLKDLLELTRREFQREDIALNYRDAEGDLVRLLSDEDVALMVRQARGLPSQKRLFPWKLHITQKDNYRVYNTMP | soluble
PEWDEYIAEQIESGALGEDEGAEFLERWMVQKQHPLDINTLTREDLEQFPFLNEFQIRRFLLYRHAHPEGFDSIWVLSEIAGWDRRTCLLLWPMLTVQKRSESAAASFREILSYARHDVSVHTDAILQQQEGYRPDSRHPYRGDPWGGGLRWSYAMGNRFSLGLTASKDRGEPAFDKRRKGFDSYSAHFFMEGKGAVRAVALGDYRIG | not soluble
MGSDKIHHHHHHMSLAQFQSVECADCPIRHRAVCARCDADELEALDAIKFYRSYEAGQTVVWSGDQMNFVGSVVSGIATLTQTMEDGRTQMVGLLLPSDFVGRPGREGSAYDVVATTDVIMCCFRKKPFEDLMVRTPHIAHRLLEMTLDELDAAREWMLVLGRKTAREKIASLLSIIARRDASLAVDPSNGAVSFDLKLTREAMADYLGLTLETVSRQISALKKAGVIQLEGKRHVTVPDMHRLIEEAGDDSDGGVLG | not soluble
MAHHHHHHMVNTLLNYSESIQLGDELSNLLEFTREMNAYLRGTQVAESDVLREAHNSFAPTEFFVLHDETPDASDVYHFVSFVYKNGAVWELDGLQKGPILAADATDGNYKEKLVEVVQKRVIDKSAADNTGTGQGISFSLMAVVDDRLLQLEKEIEEAKAREEPTAYLAEQLEELRLQREKGRAENQRRRHNYVPMIVELLKALAEKGKLEGIVEEALAKKAASASSDRS | soluble
MPEEMDKPLISLHLVDSDSSLAKVPDEAPKVGILGSGDFARSLATRLVGSGFKVVVGSRNPKRTARLFPSAAQVTFQEEAVSSPEVIFVAVFREHYSSLCSLSDQLAGKILVDVSNPTEQEHLQHRESNAEYLASLFPTCTVVKAFNVISAWTLQAGPRDGNRQVPICGDQPEAKRAVSEMALAMGFMPVDMGSLASAWEVEAMPLRLLPAWKVP | soluble
MSLCQEKEQDIQKEISYAEKHNNQRRIEGLNKALSEVRANCTDSKLRAEHQKKIAEQKEEVAERQRDLAEAKAKGDADKIDKRERKLAEAQDELKKLEHHHHHH | not soluble
MMISIFSLLASTAILVFANGQSNVKLEFVQAMWRHGERASQVDQYPIYEKDWIYGGGGLGELTAIGMGEMNELGWLIRKRYVTKLKFLTPKYASREVYFRSTNFNRTIISAQSLLYGLFPPSLYDVKNVDYPYSPLTWFPGFTFVPVHVDGPDQCAASQNCPCTRYDLLQGQMLTLPEVLPKYTQVVLLNRRVGGYYNMTSGLDSFTTYPDTWKCQRAYFNRTMYAKLPWYNEELYYQAQVTYAPVKGFLEGNFENPAVTSSGLDVGLEIKKVRSGVIINEVFNRANEKLNCAELGQNCTSYLNKLKFYGYSIHDNNVYGVLVALGIPQIANTLDGWPAYAAGIFMEFHRNTSTNERFFKVLYREGDDTPISDVTSQLPICNGATLCPLGALQTLAETLKPLPDITTLCKTPL | not soluble
MQQFHIRRLREEDIPLLKGLLVELDTSHYEAEPNFYRSPEEMAQLREERGVFDKYFDDSMIAFIACSHRQVVGFISGTVRDIDSMVSVAKRVGFVNELVVSESHRNLGIGLSLMDKIESDLCNQGIEEIGLTVASFNHEGEDFYHKMGYRVMTKMMSKRVKDLEHHHHHH | soluble
MRTSIATVCLSGTLAEKLRAAADAGFDGVEIFEQDLVVSPHSAEQIRQRAQDLGLTLDLFQPFRDFEGVEEEQFLKNLHRLEEKFKLMNRLGIEMILLCSNVGTATINDDDLFVEQLHRAADLAEKYNVKIAYEALAWGKFVNDFEHAHALVEKVNHKALGTCLDTFHILSRGWETDEVENIPAEKIFFVQLADAPKLSMDILSWSRHHRVFPGEGDFDLVKFMVHLAKTGYDGPISLEIFNDSFRKAEVGRTAIDGLRSLRWLEDQTWHALNAEDRPSALELR | not soluble
MALNGAEVDDFSWEPPTEAETKVLQARRERQDRISRLMGDYLLRGYRMLGETCADCGTILLQDKQRKIYCVACQELDSDVDKDNPALNAQAALSQAREHQLASASELPLGSRPAPQPPVPRPEHCEGAAAGLKAAQGPPAPAVPPNTDVMACTQTALLQKLTWASAELGSSTSLETSIQLCGLIRACAEALRSLQQLQHLEHHHHHH | not soluble
MANKETDILIIGGGLTGASLSLALQGLGFSVTLVESRPYSDKVNPDFDARSLALSPASQRILAMLGVWEILKEYTTPIHMIHVSDQHRFGASRLHGEKNSPLGYVVEMQYINRALSILINKEHLLTPAALKSIDFNNSTATVAHGDDMISIRAQLIVAADGTESMTRYLCNLPVKIKDYAQDAIVANVGLIKPHGNRAFERFTPNGPLALLPMMNDKMSLVWASKPEEAKRLVMLNDDDFLRELQTAFGYRLGRFGKVGKRYSYPLKQVLMPQQTKWPVVFVGNAAHTLHPVAGQGFNLGLRDIAALAQCISQKGLNPQMLEHYLQLRAHDQQMITWLTDGLIHLFTSRLPGMGVARNLGLLALDNIPALKNLLARYARGFGGITPDLVCEIALSAGEFQLEHHHHHH | soluble
MTKKCPKCGNEFDAELTTCPTCGYSLTDTTVDKEEAETTSTNIDFETQENEEHEDQLNENIEWSELKDMSLGHVMELFGESPEEESNDDKKEESTEDNLIVSDSEDVSGLEASLQEGASEETHDSVEESIPATEETPTHSTEEKLATDEAVNLEETTEETTEETTTVEAETAEVSETVKSEEEALTEISGTEVISTTSEEEIFSQPPIEDQDVTPNETLQAYIQAHRADTEMSENPSEETAETQELENSGEAVLTQAETPTESISDSEEGLTSAASLEAPSDADATEGKVSDSGVIPPMNETGNAQPAPAPKKPSKKVVFVALAVVLLAGGSAWAYHDQTQKAAAQEAAALTKKTDTLKDELAAFYTTKEQVFIKPDMVTVSPEKLSKQVAEIKDSEEYSQLNKQIQTLKEKQQTIQQINQLFEAPIVNGNELKPAILAADQPISVKKLTGNDPFDQLMNQAIDQANQQYNQLQKAKKAVEVIYKDGKTTNQLNRDTYQAAKAEVDKVTSDKLKKELVKQVTTADQALTKVEEEQKRIAEEQAAAEQAKQAEEQAKQAAAAKKEDAKKEETAKTEANGYTAPNSDGVYTSPLYAPDAADIADSSNPAWTWAPGVKEKVLDTVIARGYVVPGGYSLEPAKIVNGEGYYNLYATNNQSKLLEGTTEKNVHMYLVTINAKTGWFKGNASRNAGQ | not soluble
